Substrate in series [1]: C=C(O[C@H]1C=CC=C(C(=O)O)[C@@H]1O)C(=O)O
Nature of the series: purified protein. Conditions: with glutamate and ATP; isochorismate made from chorismate by ICS1.

Substrate in series [2]: O=C(O)c1ccc(O)cc1
As to the kind of experiment: purified protein. As to conditions: with glutamate and ATP.

B1: PBS3 (AvrPphB SUSCEPTIBLE3) (Arabidopsis thaliana) (protein)
chain: MKPIFDINETFEKQLKDLTSNVKSIQDNLLEEIITPNTKTEYLQRFLIDRFDKELFKKNVPIVSYEDIKPYLDRVVNGESSDVISARTITGFLLSSGTSGGAQKMMPWNNKYLDNLTFIYDLRMQVITKHVKGVEEGKGMMFLFTKQESMTPSGLPARVATSSYFKSDYFKNRPSNWYYSYTSPDEVILCPNNTESLYCHLLCGLVQRDEVVRTGSIFASVMVRAIEVLKNSWEELCSNIRSGHLSNWVTDLGCQNSVSLVLGGPRPELADTIEEICNQNSWKGIVKRLWPNTKYIETVVTGSMGQYVPMLNYYCNDLPLVSTTYGSSETTFGINLDPLCKPEDVSYTFMPNMSYFEFIPMDGGDKNDVVDLEDVKLGCTYEPVVTNFAGLYRMRVGDIVLVTGFYNNAPQFKFVRRENVVLSIDSDKTNEEDLFKAVSQAKLVLESSGLDLKDFTSYADTSTFPGHYVVYLEVDTKEGEEKETAQFELDEEALSTCCLVMEESLDNVYKRCRFKDGSIGPLEIRVVRQGTFDSLMDFFISQGASTGQYKTPRCIKSGKALQVLETCVVAKFFSI
The term Km denotes the substrate concentration at which the rate is half of its maximum. With B1, the Km in series [1] was 14.90 µM; in series [2], 311.54 µM. Further, the kcat in series [1] is reported as 472.29 min^-1 (printed as V/Et); in series [2], 13.46 min^-1 (printed as V/Et).

For the origin of these results see doi:10.1101/600692v2.
